Assay results published in paper PMC9388496.

Columns and labels:
[1] = molecular target: VEGF-165 (VEGF-A165, Sino Biological) (UniProt P15692); test: SPR (Biacore T200); settings: pH 5.5 vs 7.4, 0.15 M NaCl, 67 mM phosphate, the same buffer adjusted to pH 7.4 with 1 M NaOH
[2] = molecular target: FcRn coupled to the resin of the affinity chromatography column (UniProt P55899); test: analytical FcRn affinity chromatography; protein (1 mg/ml, alone or preincubated with cognate Ag) injected on a column with FcRn-coupled resin at pH 5.5 (20 mM MES, 140 mM NaCl), eluted by a linear pH gradient to pH 8.8 (20 mM Tris-HCl, 140 mM NaCl) over 110 min
[3] = molecular target: Truncated monomeric His-tagged FcRn (UniProt P55899)
[4] = molecular target: anti-NIP IgG1 (human | mouse); test: SPR; Biacore T200; IgG1, Fc or ABTs immobilised (~400 RU) on CM5 by amine coupling; monomeric His-tagged FcRn (2000-1.95 nM) injected at pH 5.5 (67 mM phosphate, 0.15 M NaCl, 0.005% Tween20), 50 μl/min; 1:1 Langmuir binding model
[5] = molecular target: bevacizumab (Avastin) (human); test: as above
etanercept (Enbrel) = etanercept (Enbrel) (UniProt P20333); test: as above
[6] = molecular target: adalimumab (Humira) (human); test: as above
[7] = molecular target: infliximab (Remicade) (human); test: as above
aflibercept (Eylea) = aflibercept (Eylea) (UniProt P17948); test: as above
[8] = molecular target: IgG1-derived Fc fragment (human); test: as above
[9] = molecular target: Truncated monomeric His-tagged FcRn (UniProt P55899); remark: listed apart in the source

VEGF-165 (VEGF-A165, Sino Biological), sequence (P15692 whole entry): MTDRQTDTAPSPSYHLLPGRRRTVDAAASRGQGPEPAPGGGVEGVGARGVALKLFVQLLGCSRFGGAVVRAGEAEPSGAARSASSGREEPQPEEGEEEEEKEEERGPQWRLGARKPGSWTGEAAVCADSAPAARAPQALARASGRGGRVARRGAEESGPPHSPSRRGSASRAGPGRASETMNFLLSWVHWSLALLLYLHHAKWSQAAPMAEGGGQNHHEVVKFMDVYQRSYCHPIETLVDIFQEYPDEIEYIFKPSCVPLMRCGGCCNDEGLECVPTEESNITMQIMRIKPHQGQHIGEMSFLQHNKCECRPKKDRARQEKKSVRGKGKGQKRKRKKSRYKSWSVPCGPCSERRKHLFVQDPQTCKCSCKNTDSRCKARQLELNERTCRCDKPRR
aflibercept (Eylea) (from UniProt P17948 129-229; P35968 1-764) (Fc fusion), sequence (P17948 other isoform, or with tags, fused parts or gaps): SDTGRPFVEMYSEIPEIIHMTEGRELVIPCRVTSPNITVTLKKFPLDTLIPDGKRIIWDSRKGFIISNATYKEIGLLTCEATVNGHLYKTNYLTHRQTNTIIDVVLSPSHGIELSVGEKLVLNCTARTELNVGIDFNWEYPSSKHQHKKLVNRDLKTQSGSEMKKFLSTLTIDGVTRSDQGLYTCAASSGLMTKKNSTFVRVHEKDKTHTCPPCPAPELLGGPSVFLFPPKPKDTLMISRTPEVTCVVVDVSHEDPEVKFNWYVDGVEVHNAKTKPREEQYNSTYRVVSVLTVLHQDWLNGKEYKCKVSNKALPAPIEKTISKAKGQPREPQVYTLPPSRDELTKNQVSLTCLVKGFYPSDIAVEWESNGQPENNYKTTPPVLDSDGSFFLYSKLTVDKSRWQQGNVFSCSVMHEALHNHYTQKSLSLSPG

“Aflibercept (Eylea), VEGFR1 D2-VEGFR2 D3-IgG1 Fc fusion” was tested, and the “on-rate (sensorgram comparison), fold change pH 5.5 over pH 7.4” value [1] was “acidic pH enhanced the on-rate more than 5-fold”.

With Bevacizumab (Avastin) the “on-rate (sensorgram comparison), fold change pH 5.5 over pH 7.4” value [1] was “acidic pH enhanced the on-rate more than 5-fold”.

With “IgG1-derived Fc fragment (domain or fragment)” the elution peak pH [2] was 7.13 pH and the reduction of the recycling of 400 nM anti-NIP IgG1 (m4) by titrated Fc fragment (6400-1 nM) in HERA, HMEC-1-FcRn cells preloaded with IVIg, uptake at pH 6.0 [3] was 32.9 nM.

With “Truncated monomeric His-tagged FcRn (from UniProt P55899 24-365) (receptor)” the Kd [4] was 0.33 µM, the Kd [5] was 0.38 µM and the koff [5] was 0.001 s⁻¹. For the same substance, the kon [5] was 32000 M⁻¹ s⁻¹, the Kd (etanercept (Enbrel)) was 0.38 µM and the koff (etanercept (Enbrel)) was 0.001 s⁻¹. The kon (etanercept (Enbrel)) was 31000 M⁻¹ s⁻¹, the Kd [6] was 0.43 µM and the koff [6] was 0.001 s⁻¹. The kon [6] was 42000 M⁻¹ s⁻¹, the Kd [7] was 0.31 µM and the koff [7] was 0.002 s⁻¹. It also gave a kon [7] of 35000 M⁻¹ s⁻¹, a Kd (aflibercept (Eylea)) of 0.35 µM and a koff (aflibercept (Eylea)) of 0.001 s⁻¹. It also gave a kon (aflibercept (Eylea)) of 30000 M⁻¹ s⁻¹ and a Kd [8] of 0.23 µM.

adalimumab (Humira) (antibody) gave an elution peak pH [2] of 7.21 pH.

Substance “aflibercept (Eylea) (from UniProt P17948 129-229; P35968 1-764) (Fc fusion)” has an elution peak pH [2] of 7.01 pH.

With “anti-NIP IgG1 Fc-engineered variant M252Y/S254T/T256E/H433K/N434F (antibody)” the cellular uptake in HERA (HMEC-1-FcRn cells) after 2 h incubation, relative to non-engineered anti-NIP IgG1 [9] was 15 fold.

bevacizumab (Avastin) (antibody) gave an elution peak pH [2] of 7.2 pH.

Substance “etanercept (Enbrel) (from UniProt P20333 23-257) (Fc fusion)” has an elution peak pH [2] of 6.88 pH.

Substance infliximab (Remicade) (antibody) has an elution peak pH [2] of 7.15 pH.
